Source: article PMC3017781, “Structure-function relationships of wheat flavone O-methyltransferase: Homology modeling and site-directed mutagenesis” (BMC Plant Biology, 2010)

How the values were obtained:
purified protein = substrate: O=c1cc(-c2cc(O)c(O)c(O)c2)oc2cc(O)cc(O)c12; assay: purified protein
[1] = substrate: COc1cc(/C=C/C(=O)O)cc(O)c1O; assay: radiometric methyltransferase assay with [3H]SAM, Lineweaver-Burk; assay type: biochemical, Triticum aestivum; details: co-substrate SAM (AdoMet) 1 mM, 30°C, 15 min
Source text: radiometric methyltransferase assay with [3H]SAM, Lineweaver-Burk on TaOMT2

[2] = co-substrate SAM (AdoMet) 1 mM, 30°C, 15 min

B1: TaOMT2 (Triticum aestivum; W259A) (protein)
chain: MGSIAAGADEDACMYALQLVSSSILPMTLKNAIELGLLETLMAAGGKFLTPAEVAAKLPSAANPEAPDMVDRMLRLLASYNVVSCRTEDGKDGRLSRRYGAAPVCKYLTPNEDGVSMSALALMNQDKVLMESWYYLKDAVLDGGIPFNKAYGMSAFEYHGTDPRFNRVFNEGMKNHSIIITKKLLESYKGFEGLGTLVDVGGGVGATVAAITAHYPTIKGINFDLPHVISEAPPFPGVTHVGGDMFQKVPSGDAILMKAILHDWSDEHCATLLKNCYDALPAHGKVVLVECILPVNPEATPKAQGVFHVDMIMLAHNPGGRERYEREFEALAKGAGFAAMKTTYIYANAWAIEFTK
Purified protein; co-substrate SAM, saturating
  Km: 131.0 µM

B2: TaOMT2 (Triticum aestivum; E322I) (protein)
chain: MGSIAAGADEDACMYALQLVSSSILPMTLKNAIELGLLETLMAAGGKFLTPAEVAAKLPSAANPEAPDMVDRMLRLLASYNVVSCRTEDGKDGRLSRRYGAAPVCKYLTPNEDGVSMSALALMNQDKVLMESWYYLKDAVLDGGIPFNKAYGMSAFEYHGTDPRFNRVFNEGMKNHSIIITKKLLESYKGFEGLGTLVDVGGGVGATVAAITAHYPTIKGINFDLPHVISEAPPFPGVTHVGGDMFQKVPSGDAILMKWILHDWSDEHCATLLKNCYDALPAHGKVVLVECILPVNPEATPKAQGVFHVDMIMLAHNPGGRIRYEREFEALAKGAGFAAMKTTYIYANAWAIEFTK
Purified protein; co-substrate SAM, saturating
  Km: 193.17 µM

B3: TaOMT2 (Triticum aestivum; V309I) (protein)
chain: MGSIAAGADEDACMYALQLVSSSILPMTLKNAIELGLLETLMAAGGKFLTPAEVAAKLPSAANPEAPDMVDRMLRLLASYNVVSCRTEDGKDGRLSRRYGAAPVCKYLTPNEDGVSMSALALMNQDKVLMESWYYLKDAVLDGGIPFNKAYGMSAFEYHGTDPRFNRVFNEGMKNHSIIITKKLLESYKGFEGLGTLVDVGGGVGATVAAITAHYPTIKGINFDLPHVISEAPPFPGVTHVGGDMFQKVPSGDAILMKWILHDWSDEHCATLLKNCYDALPAHGKVVLVECILPVNPEATPKAQGVFHIDMIMLAHNPGGRERYEREFEALAKGAGFAAMKTTYIYANAWAIEFTK
notes: full length, 356 residues, vector pET200/D-TOPO, expressed in E. coli BL21 (DE3), Ni-NTA purified, tag removal not mentioned; dimer in solution (monomers also active)
Purified protein; [2]
  Km: 101.08 ± 9.68 µM
[1]
  Km: 18.24 ± 1.72 µM

B4: TaOMT2 (Triticum aestivum) (protein)
chain: MGSIAAGADEDACMYALQLVSSSILPMTLKNAIELGLLETLMAAGGKFLTPAEVAAKLPSAANPEAPDMVDRMLRLLASYNVVSCRTEDGKDGRLSRRYGAAPVCKYLTPNEDGVSMSALALMNQDKVLMESWYYLKDAVLDGGIPFNKAYGMSAFEYHGTDPRFNRVFNEGMKNHSIIITKKLLESYKGFEGLGTLVDVGGGVGATVAAITAHYPTIKGINFDLPHVISEAPPFPGVTHVGGDMFQKVPSGDAILMKWILHDWSDEHCATLLKNCYDALPAHGKVVLVECILPVNPEATPKAQGVFHVDMIMLAHNPGGRERYEREFEALAKGAGFAAMKTTYIYANAWAIEFTK
notes: as for B3
Purified protein; [2]
  Km: 59.51 ± 0.79 µM
[1]
  Km: 270.98 ± 11.51 µM

B5: TaOMT2 (Triticum aestivum; W259Y) (protein)
chain: MGSIAAGADEDACMYALQLVSSSILPMTLKNAIELGLLETLMAAGGKFLTPAEVAAKLPSAANPEAPDMVDRMLRLLASYNVVSCRTEDGKDGRLSRRYGAAPVCKYLTPNEDGVSMSALALMNQDKVLMESWYYLKDAVLDGGIPFNKAYGMSAFEYHGTDPRFNRVFNEGMKNHSIIITKKLLESYKGFEGLGTLVDVGGGVGATVAAITAHYPTIKGINFDLPHVISEAPPFPGVTHVGGDMFQKVPSGDAILMKYILHDWSDEHCATLLKNCYDALPAHGKVVLVECILPVNPEATPKAQGVFHVDMIMLAHNPGGRERYEREFEALAKGAGFAAMKTTYIYANAWAIEFTK
Purified protein; co-substrate SAM, saturating
  Km: 170.1 µM

B6: TaOMT2 (Triticum aestivum; D263N) (protein)
chain: MGSIAAGADEDACMYALQLVSSSILPMTLKNAIELGLLETLMAAGGKFLTPAEVAAKLPSAANPEAPDMVDRMLRLLASYNVVSCRTEDGKDGRLSRRYGAAPVCKYLTPNEDGVSMSALALMNQDKVLMESWYYLKDAVLDGGIPFNKAYGMSAFEYHGTDPRFNRVFNEGMKNHSIIITKKLLESYKGFEGLGTLVDVGGGVGATVAAITAHYPTIKGINFDLPHVISEAPPFPGVTHVGGDMFQKVPSGDAILMKWILHNWSDEHCATLLKNCYDALPAHGKVVLVECILPVNPEATPKAQGVFHVDMIMLAHNPGGRERYEREFEALAKGAGFAAMKTTYIYANAWAIEFTK
Purified protein; co-substrate SAM, saturating
  Km: 128.2 µM

B7: TaOMT2 (Triticum aestivum; G305S) (protein)
chain: MGSIAAGADEDACMYALQLVSSSILPMTLKNAIELGLLETLMAAGGKFLTPAEVAAKLPSAANPEAPDMVDRMLRLLASYNVVSCRTEDGKDGRLSRRYGAAPVCKYLTPNEDGVSMSALALMNQDKVLMESWYYLKDAVLDGGIPFNKAYGMSAFEYHGTDPRFNRVFNEGMKNHSIIITKKLLESYKGFEGLGTLVDVGGGVGATVAAITAHYPTIKGINFDLPHVISEAPPFPGVTHVGGDMFQKVPSGDAILMKWILHDWSDEHCATLLKNCYDALPAHGKVVLVECILPVNPEATPKAQSVFHVDMIMLAHNPGGRERYEREFEALAKGAGFAAMKTTYIYANAWAIEFTK
Purified protein; co-substrate SAM, saturating
  Km: 118.41 µM
